Target: chimera protein of europium (Eu) labeled human glycoprotein Ib α-chain and a mouse IgG2a Fc region (human; mouse) (UniProt P07359)
Chain of UniProt P07359 (P07359 17-335 limits assumed, change not shown): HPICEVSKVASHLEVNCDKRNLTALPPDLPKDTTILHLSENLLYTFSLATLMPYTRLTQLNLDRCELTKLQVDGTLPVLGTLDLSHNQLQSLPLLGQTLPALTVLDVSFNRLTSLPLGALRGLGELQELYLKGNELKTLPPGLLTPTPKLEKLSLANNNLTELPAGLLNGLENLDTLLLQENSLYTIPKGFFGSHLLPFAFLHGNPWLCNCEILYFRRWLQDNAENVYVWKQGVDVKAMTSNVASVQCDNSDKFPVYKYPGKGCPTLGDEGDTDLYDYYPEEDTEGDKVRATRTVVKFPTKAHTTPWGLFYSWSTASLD

“AS1051-PEG5000 (from UniProt P81508 1-126)” was tested. Which IC50 did it give?
Its IC50 is 0.0981 µg/mL.

How did the IC50 turn out when “AS1051-PEG20000 (from UniProt P81508 1-126)” was run?
The IC50 was 0.0903 µg/mL.
